Source: patent US8168594B2, “Method for treating celiac disease” (Alba Therapeutics Corporation, priority 2006, dated 2012)

Experiments:
[1] = Release from delayed-release particles in Simulated Gastric Fluid (dissolution apparatus, HPLC); assay type: physicochemical; conditions: delayed-release particles containing 4-6% peptide; SGF containing 0.1% v/v Tween 80K, 37° C.; time course of 60 minutes
Procedure: (§1) The stability of delayed-release particles containing 4-6% tight junction antagonist peptide (SEQ ID NO: 1) was performed. Delayed-release particles prepared as described above were exposed to Simulated Gastric Fluid (SGF) containing 0.1% v/v Tween 80K under controlled temperature (37° C.±0.5° C.) and agitation in a dissolution apparatus for 1 hour. The beads were removed from the SGF and exposed to Simulated Intestinal Fluid (SIF) containing 0.1% v/v Tween 80K. Samples were pulled from the bath and analyzed by HPLC at 220 nm on a Inertsil ODS-2 HPLC Column (150 mm×3 mm, 5 μm) with an Inertsil ODS-2 HPLC Guard Column (20 mm×4.6 […], 5 μm). Mobile Phase A: 92:8 Water:ACN, 0.1% TFA Mobile Phase B: ACN, 0.1% TFA). The chromatographic conditions are shown below.
(§2) • Run time: 17 min • Detection: 220 nm • Response time: 0.5 sec • Column Temp.: 40° C.±1° C. • Auto Sampler Temp: 10° C.±2° c. • Injection Volume: 5 μl of solution
(§3) The percentage of total tight junction effector released is determined by comparison to a reference standard of the effector.
Simulated Gastric Fluid may be prepared as follows: per liter, place the following into a container: 2.0 gram sodium chloride, 7.0 mL concentrated hydrochloric acid, and 1.0 L water. Stir until completely dissolved. Check the pH and adjust to 1.2±0.1 with dilute HCl or NaOH. De-aerate medium. To this solution Tween 80 was added to 0.1% (v/v). […]

[2] = Release from delayed-release particles in Simulated Intestinal Fluid (dissolution apparatus, HPLC); assay type: physicochemical; conditions: delayed-release particles containing 4-6% peptide, SIF containing 0.1% v/v Tween 80K, after 1 hour in SGF
Procedure: as §1, §2, §3
SIF can be prepared as follows: place the following into a container: 1.9 Kg distilled water, 136 g monobasic potassium phosphate, and 18.1 gram of sodium hydroxide. Stir until completely dissolved. Dilute the solution with 18.0 Kg water. Check the pH and adjust to 6.8±0.1 with dilute HCl or NaOH. De-aerated medium. […]

rabbit ileal mucosa = conditions: cited from earlier work

GGVLVQPG [SEQ ID NO:1, tight junction antagonist peptide]
antagonist peptide released in simulated gastric fluid [1]: less than 8%
antagonist peptide released in simulated intestinal fluid within 15 minutes ([2]; within 15 minutes): Over 90%
antagonist peptide released in simulated intestinal fluid within 60 minutes ([2]; within 60 minutes): essentially all

ZOT: Zonula occludens toxin produced by Vibrio cholerae; tight junction agonist
effect on intestinal permeability (rabbit ileal mucosa): increased the intestinal permeability
